Tested on: CCCC(=O)Oc1ccc([N+](=O)[O-])cc1
Test: purified protein
Settings: 37 °C, semi-purified His-tagged enzyme, methods state optimal assay conditions (pH 7)

LipJ (Bacillus sp. (in: firmicutes))
Km: 1700 µM
